Data: patent US20240287172A1 (SCIRHOM, published 2024)
Substitutions are numbered along the chain they refer to.

T1: hiR2-FL-M591A-T7 (human, UniProt Q6PJF5 1-856)
T1 sequence: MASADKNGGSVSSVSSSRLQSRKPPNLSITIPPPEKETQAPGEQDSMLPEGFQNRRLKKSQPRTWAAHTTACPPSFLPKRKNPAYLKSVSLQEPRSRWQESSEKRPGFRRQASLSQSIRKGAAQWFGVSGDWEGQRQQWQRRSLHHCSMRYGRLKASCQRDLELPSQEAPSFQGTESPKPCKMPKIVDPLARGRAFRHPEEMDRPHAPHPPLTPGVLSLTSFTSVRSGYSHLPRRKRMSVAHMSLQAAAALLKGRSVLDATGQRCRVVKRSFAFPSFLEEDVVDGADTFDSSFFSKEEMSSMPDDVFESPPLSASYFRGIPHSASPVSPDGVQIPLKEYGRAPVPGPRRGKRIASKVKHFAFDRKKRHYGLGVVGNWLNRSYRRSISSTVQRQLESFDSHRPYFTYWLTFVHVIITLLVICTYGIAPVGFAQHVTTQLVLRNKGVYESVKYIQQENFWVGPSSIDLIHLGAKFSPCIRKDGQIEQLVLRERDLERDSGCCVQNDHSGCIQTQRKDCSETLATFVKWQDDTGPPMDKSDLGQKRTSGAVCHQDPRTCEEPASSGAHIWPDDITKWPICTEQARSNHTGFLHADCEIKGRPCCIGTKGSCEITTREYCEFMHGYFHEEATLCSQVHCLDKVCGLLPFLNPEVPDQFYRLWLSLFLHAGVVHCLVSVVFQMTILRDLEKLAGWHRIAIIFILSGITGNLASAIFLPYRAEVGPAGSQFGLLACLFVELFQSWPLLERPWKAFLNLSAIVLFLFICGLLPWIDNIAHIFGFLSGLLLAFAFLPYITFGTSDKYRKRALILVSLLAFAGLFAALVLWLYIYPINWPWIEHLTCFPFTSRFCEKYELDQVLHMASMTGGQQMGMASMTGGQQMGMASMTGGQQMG

T2: hiR2-FL-N503A-T7 (human, UniProt Q6PJF5 1-856)
T2 sequence: T1 sequence with N503A, A591M

B1: antibody 48 (antibody, V domains shown)
VH: QVQLQQSGTELVRPGTSVKVSCKASGYAFTNYLIEWVKQRPGQGLEWIGVINPGSGFTKYNEKFKGKATLTADKSSSTVYMHLSSLTSEDSAVYFCARGLYRAMDYWGQGTSVTVSS
VL: DIQMTQSPASQSASLGESVTITCLASQTIATWLAWYQQKPGKSPQLLIYGATTLADGVPSRFSGGGSGTKFSFKISSLQAEDFVSYYCQQLYSTPYTFGGGTKLEIK
notes: mouse IgG, kappa light chain; also called clone #48; purified antibody 48
B2: antibody 50 (antibody, V domains shown)
VH: B1 VH with T9A, T16A, T30S, V79A, H82Q
VL: B1 VL with A30G, G50A, T52A, T53S, S85N, L91I
notes: mouse IgG, kappa light chain; also called clone #50; purified antibody 50

Assays:
hiR2-FL-M591A-T7 = biological target: T1, hiR2-FL-M591A-T7; experiment: FACS on MEF-DKO cells expressing the variant, 3 µg/ml antibody
How it was run: (§1)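 Cells were stained with purified antibody at 3 μg/ml in FACS buffer for 1 hour on ice, with buffer-only controls. Bound antibody was detected with PE-conjugated goat anti-mouse IgG F(ab′)2 at 1:100, 1 hour on ice in the dark, followed by flow cytometry.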

hiR2-FL-N503A-T7 = biological target: T2, hiR2-FL-N503A-T7; experiment: as above
How it was run: as §1

| Binder | loss of binding vs wild type (hiR2-FL-M591A-T7) | loss of binding vs wild type (hiR2-FL-N503A-T7) |
| --- | --- | --- |
| B1 | ≥ 30% | ≥ 30% |
| B2 | ≥ 30% | ≥ 30% |
